Results from patent publication US20250026849A1 (ARCELLX, published 2025).

T1: CD123 (Homo sapiens (Human), UniProt P26951 19-305, limits assumed)
T1 construct: The CD123 construct used in the ELISA is not described; also called CD123-Signal
T1 sequence: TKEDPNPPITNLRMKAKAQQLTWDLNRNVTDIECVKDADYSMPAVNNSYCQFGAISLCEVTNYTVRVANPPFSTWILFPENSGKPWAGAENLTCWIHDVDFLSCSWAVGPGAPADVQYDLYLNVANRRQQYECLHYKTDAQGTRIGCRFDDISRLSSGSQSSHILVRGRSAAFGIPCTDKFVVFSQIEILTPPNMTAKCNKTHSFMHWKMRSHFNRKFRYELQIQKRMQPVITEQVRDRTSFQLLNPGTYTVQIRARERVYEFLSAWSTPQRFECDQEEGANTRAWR

B1: D domain of SEQ ID NO: 561 (designed binder)
chain: MGSWFQFKEFLAMITHNLEALGGSEAELAEFEHDIALFESELQQYKGKGNPEVEALRKEAAAIRDELQAYRHN
B2: D domain of SEQ ID NO: 562 (designed binder)
chain: MGSWHWFKEDLAMITDVLEALGGSEAELAAFESEIAVFEADLQYYKGKGNPEVEALRKEAAAIRDELQAYRHN
B3: D domain of SEQ ID NO: 563 (designed binder)
chain: MGSWSWFQWDLAGIKDHLEALGGSEAELAEFESEIAYFEDELQWYKGKGNPEVEALRKEAAAIRDELQAYRHN
B4: D domain of SEQ ID NO: 564 (designed binder)
chain: MGSWTEFKGELAEIKWILEALGGSEAELAFFEDEIAAFEWDLQKYKGKGNPEVEALRKEAAAIRDELQAYRHN
B5: D domain of SEQ ID NO: 565 (designed binder)
chain: MGSWFEFKWTLALIKQELEALGGSEAELADFEQEIAEFEWWLQTYKGKGNPEVEALRKEAAAIRDELQAYRHN
B6: D domain of SEQ ID NO: 566 (designed binder)
chain: MGSWAEFKQRLAAIKTRLEALGGSEAELAAFMDEIMAFEWELWAYKGKGNPEVEALMNEAFAIDVELYAYRHN
B7: D domain of SEQ ID NO: 567 (designed binder)
chain: MGSWAEFKQRLAAIKTRLEALGGSEAELAAFEWEIVAFFSELFAYKGKGNPEVEALRDEAIAIETELVAYRHN
B8: D domain of SEQ ID NO: 568 (designed binder)
chain: MGSWWEFDHRLTAIDTRLQALGGSEAELAEFESSIAEFEWWLQDYKGKGNPEVEALFAEAEAIYVELDAYRHN
B9: D domain of SEQ ID NO: 569 (designed binder)
chain: MGSWWEFQFRLYAIDQRLLALGGSEAELAEFEQDIADFEWMLQDYKGKGNPEVEALMLEADAIEAELKAYRHN
B10: D domain of SEQ ID NO: 570 (designed binder)
chain: MGSWYEFDHRLDAIYQRLWALGGSEAELAEFEYGIAEFEEYLQDYKGKGNPEVEALISEAWAIEWELSAYRHN
B11: D domain of SEQ ID NO: 571 (designed binder)
chain: MGSWYEFDMRLDAIWERLTALGGSEAELADFEQYIAEFERQLQDYKGKGNPEVEALFDEAWAIEDELYAYRHN
B12: D domain of SEQ ID NO: 572 (designed binder)
chain: MGSWSEFDSRLDAIAYRLFALGGSEAELAQFEWIIADFEEDLQMYKGKGNPEVEALFSEAYAIEIELNAYRHN
B13: D domain of SEQ ID NO: 573 (designed binder)
chain: MGSWYEFDDRLDAIAYRLNALGGSEAELAWFEWEIAEFELDLQWYKGKGNPEVEALVWEADAIEWELEAYRHN
B14: D domain of SEQ ID NO: 574 (designed binder)
chain: MGSWFEFDERLDAIGSRLTALGGSEAELASFEFYIADFEEWLQQYKGKGNPEVEALEWEAFAIDEELGAYRHN
B15: D domain of SEQ ID NO: 575 (designed binder)
chain: MGSWEEFDQRLDAIDVRLYALGGSEAELAEFEFDIAAFEEWLQLYKGKGNPEVEALNMEAFAITDELCAYRHN
B16: D domain of SEQ ID NO: 576 (designed binder)
chain: MGSWEEFDVRLDAIFNRLWALGGSEAELAEFEFDIAWFEMDLQEYKGKGNPEVEALFDEAEAITNELVAYRHN
B17: D domain of SEQ ID NO: 577 (designed binder)
chain: MGSWEEFDKRLDAITRRLMALGGSEAELAEFESTIAWFEWDLQEYKGKGNPEVEALDWEAYAIDYELGAYRHN
B18: D domain of SEQ ID NO: 578 (designed binder)
chain: MGSWYEFDHRLEAIYDRLWALGGSEAELAFFEFDIADFEWDLQSYKGKGNPEVEALFDEAAAIGHELLAYRHN
B19: D domain of SEQ ID NO: 579 (designed binder)
chain: MGSWNEFDDRLLAIWGRLDALGGSEAELAFFEEQIAGFEDELQWYKGKGNPEVEALDQEAEAIEKELWAYRHN
B20: D domain of SEQ ID NO: 580 (designed binder)
chain: MGSWVEFDDRLDAIWERLDALGGSEAELAWFEEQIAVFEHQLQDYKGKGNPEVEALNQEAEAIDLELKAYRHN
B21: D domain of SEQ ID NO: 581 (designed binder)
chain: MGSWTEFDDRLFAIYWRLDALGGSEAELAWFEEVIAEFENDLQVYKGKGNPEVEALDDEAHAISIELEAYRHN
B22: D domain of SEQ ID NO: 582 (designed binder)
chain: MGSWSEFDQRLEAIWNRLDALGGSEAELADFEREIAYFENQLQWYKGKGNPEVEALNNEAFAIVDELGAYRHN
B23: D domain of SEQ ID NO: 583 (designed binder)
chain: MGSWYEFDERLWAIWERLDALGGSEAELAHFEWVIADFENDLQWYKGKGNPEVEALEFEAEAIVTELHAYRHN
B24: D domain of SEQ ID NO: 584 (designed binder)
chain: MGSWMEFDYRLEAIWMRLIALGGSEAELADFESSIADFEHHLQSYKGKGNPEVEALEWEAFAIGVELDAYRHN
B25: D domain of SEQ ID NO: 585 (designed binder)
chain: MGSWYEFESRLEAIWWRLEALGGSEAELAQFEQYIADFEQHLQWYKGKGNPEVEALDWEADAIWLELQAYRHN
B26: D domain of SEQ ID NO: 586 (designed binder)
chain: MGSWEEFYMRLVAIHMRLRALGGSEAELAVFENYIAEFEEYLQYYKGKGNPEVEALTIEADAIGTELGAYRHN
B27: D domain of SEQ ID NO: 587 (designed binder)
chain: MGSWDEFYYRLVAITHRLHALGGSEAELAWFEDDIAGFEWDLQTYKGKGNPEVEALYKEAGAIGMELTAYRHN
B28: D domain of SEQ ID NO: 588 (designed binder)
chain: MGSWEEFDTRLLAIFGRLGALGGSEAELALFEMLIAKFEDDLQNYKGKGNPEVEALSEEAFAIDHELGAYRHN
B29: D domain of SEQ ID NO: 589 (designed binder)
chain: MGSWREFDQRLWAIDWRLEALGGSEAELAMFEWMIATFEDDLQWYKGKGNPEVEALYREAFAIDWELDAYRHN
B30: D domain of SEQ ID NO: 590 (designed binder)
chain: MGSWEEFHERLDAIDERLEALGGSEAELAFFEDDIASFEDWLQWYKGKGNPEVEALSREADAINFELEAYRHN
B31: D domain of SEQ ID NO: 591 (designed binder)
chain: MGSWNEFYERLEAIDRRLFALGGSEAELALFEWMIADFEDDLQMYKGKGNPEVEALINEAGAIGFELEAYRHN
B32: D domain of SEQ ID NO: 592 (designed binder)
chain: MGSWTEFTQRLEAIVDRLFALGGSEAELAEFENSIADFEWDLQWYKGKGNPEVEALNREAVAIDNELWAYRHN
B33: D domain of SEQ ID NO: 593 (designed binder)
chain: MGSWVEFIMRLDAIYERLDALGGSEAELAEFEWHIADFEDHLQWYKGKGNPEVEALFEEADAIWEELWAYRHN
B34: D domain of SEQ ID NO: 594 (designed binder)
chain: MGSWNEFLLRLDAIEHRLFALGGSEAELAEFEWEIADFEDDLQWYKGKGNPEVEALVEEAEAIDVELVAYRHN
B35: D domain of SEQ ID NO: 595 (designed binder)
chain: MGSWYEFNMRLGAIDDRLQALGGSEAELAWFEDMIAIFEDDLQIYKGKGNPEVEALEQEAAAIHQELWAYRHN
B36: D domain of SEQ ID NO: 596 (designed binder)
chain: MGSWEEFHWRLGAIDARLEALGGSEAELAWFEDGIADFEAILQDYKGKGNPEVEALDSEAVAIHHELWAYRHN
B37: D domain of SEQ ID NO: 597 (designed binder)
chain: MGSWYEFYERLWAIDDRLWALGGSEAELAEFEDSIATFEPSLQMYKGKGNPEVEALVAEAWAIFDELAAYRHN
B38: D domain of SEQ ID NO: 598 (designed binder)
chain: MGSWFEFDQRLDAITFRLWALGGSEAELAEFEDVIALFEYHLQDYKGKGNPEVEALEVEAWAIFHELGAYRHN
B39: D domain of SEQ ID NO: 599 (designed binder)
chain: MGSWSEFWFRLDAIEDRLWALGGSEAELAEFEDNIALFEYSLQHYKGKGNPEVEALVKEANAIDDELGAYRHN
B40: D domain of SEQ ID NO: 600 (designed binder)
chain: MGSWYEFWDRLTAIEHRLWALGGSEAELAYFEDSIAHFEGSLQVYKGKGNPEVEALYKEAEAIEWELEAYRHN
B41: D domain of SEQ ID NO: 601 (designed binder)
chain: MGSWYEFDDRLWAIFDRLFALGGSEAELAFFEDSIAEFEEELQHYKGKGNPEVEALYLEAWAIENELGAYRHN
B42: D domain of SEQ ID NO: 602 (designed binder)
chain: MGSWNEFVERLSAIDHRLWALGGSEAELADFEQQIAEFEIHLQEYKGKGNPEVEALDFEADAIFDELLAYRHN
B43: D domain of SEQ ID NO: 603 (designed binder)
chain: MGSWSEFVDRLDAIFDRLWALGGSEAELAWFEDTIAHFEWNLQEYKGKGNPEVEALNGEADAITDELHAYRHN

Target: T1, CD123
Assay: ELISA
Set-up: unit not given here

Binder	ELISA_avg
B1	3.1
B2	5.2
B3	12.9
B4	8.2
B5	4.9
B6	3.4
B7	3.6
B8	4.3
B9	3.1
B10	4.6
B11	13.7
B12	4.3
B13	4.6
B14	3.8
B15	3.6
B16	4.7
B17	4.5
B18	4.5
B19	4.1
B20	5
B21	6.4
B22	3.4

Binder	ELISA_avg
B23	3.6
B24	3.1
B25	4.4
B26	4.4
B27	5.4
B28	6.7
B29	3.4
B30	4.3
B31	5.2
B32	3.9
B33	6.4
B34	3.2
B35	3.8
B36	3.3
B37	3.6
B38	3.2
B39	4.5
B40	4.4
B41	4.7
B42	3.2
B43	5.3
